In IntAct's records for PubMed 26586190:

B1: Sestrin-2 (Homo sapiens), P58004 (parent)
chain: MIVADSECRAELKDYLRFAPGGVGDSGPGEEQRESRARRGPRGPSAFIPVEEVLREGAESLEQHLGLEALMSSGRVDNLAVVMGLHPDYFTSFWRLHYLLLHTDGPLASSWRHYIAIMAAARHQCSYLVGSHMAEFLQTGGDPEWLLGLHRAPEKLRKLSEINKLLAHRPWLITKEHIQALLKTGEHTWSLAELIQALVLLTHCHSLSSFVFGCGILPEGDADGSPAPQAPTPPSEQSSPPSRDPLNNSGGFESARDVEALMERMQQLQESLLRDEGTSQEEMESRFELEKSESLLVTPSADILEPSPHPDMLCFVEDPTFGYEDFTRRGAQAPPTFRAQDYTWEDHGYSLIQRLYPEGGQLLDEKFQAAYSLTYNTIAMHSGVDTSVLRRAIWNYIHCVFGIRYDDYDYGEVNQLLERNLKVYIKTVACYPEKTTRRMYNLFWRHFRHSEKVHVNLLLLEARMQAALLYALRAITRYMT
partner: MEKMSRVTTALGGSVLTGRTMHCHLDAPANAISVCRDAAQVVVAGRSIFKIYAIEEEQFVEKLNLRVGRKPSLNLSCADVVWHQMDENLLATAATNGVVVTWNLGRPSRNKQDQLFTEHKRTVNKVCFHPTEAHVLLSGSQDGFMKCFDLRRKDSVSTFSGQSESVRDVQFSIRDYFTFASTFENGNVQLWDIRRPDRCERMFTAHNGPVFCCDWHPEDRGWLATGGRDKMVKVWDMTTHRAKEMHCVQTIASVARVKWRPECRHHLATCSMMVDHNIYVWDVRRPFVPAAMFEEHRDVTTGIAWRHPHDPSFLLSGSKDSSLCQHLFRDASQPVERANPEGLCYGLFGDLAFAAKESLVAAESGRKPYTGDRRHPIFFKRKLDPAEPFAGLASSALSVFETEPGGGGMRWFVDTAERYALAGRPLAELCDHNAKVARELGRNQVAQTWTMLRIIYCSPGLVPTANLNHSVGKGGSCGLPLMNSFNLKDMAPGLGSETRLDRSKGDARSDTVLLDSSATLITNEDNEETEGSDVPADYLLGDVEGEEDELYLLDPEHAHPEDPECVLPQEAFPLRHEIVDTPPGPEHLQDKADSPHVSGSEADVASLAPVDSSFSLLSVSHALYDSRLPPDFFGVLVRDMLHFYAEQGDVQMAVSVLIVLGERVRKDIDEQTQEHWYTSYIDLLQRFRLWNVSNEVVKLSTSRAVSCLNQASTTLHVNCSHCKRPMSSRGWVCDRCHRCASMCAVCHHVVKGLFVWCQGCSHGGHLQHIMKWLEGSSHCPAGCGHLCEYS

Variants of: B1
Conditions: with wdr24_human WDR24, Q96S15

effect of a mutation on the interaction | Variant
disrupting interaction strength | MIVADSECRAELKDYLRFAPGGVGDSGPGEEQRESRARRGPRGPSAFIPVEEVLREGAESLEQHLGLEALMSSGRVDNLAVVMGLHPDYFTSFWRLHYLLLHTDGPLASSWRHYIAIMAAARHQCSYLVGSHMAEFLQTGGDPEWLLGLHRAPEKLRKLSEINKLLAHRPWLITKEHIQALLKTGEHTWSLAELIQALVLLTHCHSLSSFVFGCGILPEGDADGSPAPQAPTPPSEQSSPPSRDPLNNSGGFESARDVEALMERMQQLQESLLRDEGTSQEEMESRFELEKSESLLVTPSADILEPSPHPDMLCFVEDPTFGYEDFTRRGAQAPPTFRAQDYTWEDHGYSLIQRLYPEGGQLLDEKFQAAYSLTYNTIAMHSGVDTSVLRRAIWNYIHCVFGIRYAAYDYGEVNQLLERNLKVYIKTVACYPEKTTRRMYNLFWRHFRHSEKVHVNLLLLEARMQAALLYALRAITRYMT [D406A;D407A]
